Assay results published in patent US20230167182A1 (BIOSION, published 2023).
Where two headings read alike, the source gives them in different places.

T1: recombinant human IL6R-his (human, UniProt P08887 20-365)
T1 construct: In house made; the entry includes the C-terminal His tag; also called human IL6R-his protein
T1 sequence: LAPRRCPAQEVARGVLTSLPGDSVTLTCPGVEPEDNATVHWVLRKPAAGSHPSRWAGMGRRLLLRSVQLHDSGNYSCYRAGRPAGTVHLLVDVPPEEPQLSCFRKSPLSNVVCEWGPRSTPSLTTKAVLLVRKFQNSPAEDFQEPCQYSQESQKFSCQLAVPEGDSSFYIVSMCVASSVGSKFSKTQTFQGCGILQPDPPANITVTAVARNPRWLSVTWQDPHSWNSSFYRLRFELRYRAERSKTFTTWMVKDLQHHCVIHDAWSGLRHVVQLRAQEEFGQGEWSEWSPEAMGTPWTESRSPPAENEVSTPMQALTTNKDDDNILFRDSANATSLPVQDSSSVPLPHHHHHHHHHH

T2: human IL6R expressed on cell surface (human, UniProt P08887 20-468)
T2 construct: whole, on cells; also called cell surface human IL6R; U266 cells expressing human IL6R
T2 sequence (looked up): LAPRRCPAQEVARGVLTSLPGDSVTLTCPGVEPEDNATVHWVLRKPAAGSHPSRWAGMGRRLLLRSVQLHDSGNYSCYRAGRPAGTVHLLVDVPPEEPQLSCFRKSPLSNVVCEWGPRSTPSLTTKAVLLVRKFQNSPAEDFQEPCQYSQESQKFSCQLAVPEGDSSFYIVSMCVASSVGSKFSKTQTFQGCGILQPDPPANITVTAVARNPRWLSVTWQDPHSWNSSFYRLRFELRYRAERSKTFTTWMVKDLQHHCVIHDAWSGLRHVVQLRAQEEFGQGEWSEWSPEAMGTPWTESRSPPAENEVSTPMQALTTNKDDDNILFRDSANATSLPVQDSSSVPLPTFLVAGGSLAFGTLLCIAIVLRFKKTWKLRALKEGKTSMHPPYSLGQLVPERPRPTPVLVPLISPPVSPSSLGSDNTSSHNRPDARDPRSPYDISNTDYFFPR


Tests used:
human IL6R-Fc protein [1] = biological target: T3, human IL6R-Fc protein (human, biotin-labeled in the ELISAs (sites not given)); assay: ligand blocking ELISA: antibody pre-incubated with biotin-labeled human IL6R-Fc, added to plate-coated human IL6 (blocked ligand: human IL6)
T3 construct: In house made; also called biotin-labeled human IL6R-Fc protein
Method: ELISA plates were washed once with wash buffer (PBS+0.05% v/v Tween-20, PBST) and then blocked with 200 μl/well blocking buffer (5% w/v non-fatty milk in PBST) overnight at 4° C.
(§1) The next day, anti-IL6R antibodies or controls were diluted with biotin labeled human IL6R-Fc protein (prepared in house, SEQ ID NO: 43, 39.5 ng/ml in 2.5% w/v non-fatty milk in PBST), starting at 100 nM with a 4-fold serial dilution, and incubated at room temperature for 40 minutes. […] Plates were washed for 4 times using wash buffer, and added and incubated with 100 μl/well of streptavidin conjugated HRP (1:10000 dilution in PBST buffer, Jackson ImmunoResearch Laboratories, Inc., Cat #016-030-084) for 40 minutes at 37° C. Plates were washed again using wash buffer. Finally, TMB was added and the reaction was stopped using 1M H₂SO₄. The absorbance was read on a microplate reader using dual wavelength mode with 450 nm for TMB and 630 nm as the reference wavelength, and then the OD (450-630) values were plotted against antibody concentration. Data was analyzed using Graphpad Prism software and IC₅₀ values were reported.
Target sequence in this assay (chain, as listed by the source limits assumed): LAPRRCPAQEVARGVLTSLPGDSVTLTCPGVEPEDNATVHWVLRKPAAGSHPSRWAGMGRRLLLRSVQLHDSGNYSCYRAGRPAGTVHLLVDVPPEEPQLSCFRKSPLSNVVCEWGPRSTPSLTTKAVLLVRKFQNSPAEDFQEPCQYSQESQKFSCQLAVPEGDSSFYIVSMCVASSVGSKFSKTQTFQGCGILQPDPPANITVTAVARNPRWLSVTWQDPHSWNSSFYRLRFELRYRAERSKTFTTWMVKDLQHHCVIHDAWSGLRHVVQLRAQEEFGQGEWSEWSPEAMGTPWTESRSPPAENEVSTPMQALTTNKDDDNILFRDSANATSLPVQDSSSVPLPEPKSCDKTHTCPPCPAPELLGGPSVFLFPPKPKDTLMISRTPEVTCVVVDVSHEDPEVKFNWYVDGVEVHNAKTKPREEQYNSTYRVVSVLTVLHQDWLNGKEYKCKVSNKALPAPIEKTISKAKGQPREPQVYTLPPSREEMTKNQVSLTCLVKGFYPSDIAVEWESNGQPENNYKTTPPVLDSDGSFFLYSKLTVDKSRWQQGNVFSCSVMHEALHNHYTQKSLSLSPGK

[2] = biological target: T1, recombinant human IL6R-his; assay: SPR Biacore; antibody at 10 ug/ml captured by anti-human IgG on CM5, human IL6R in flow
Method: Un-reacted moieties on the biosensor surface were blocked with ethanolamine. […] Then, serially diluted recombinant human IL6R-his (in house made, amino acid sequence set forth in SEQ ID NO: 44) or macaca IL6R-his protein (in house made, amino acid sequence set forth in SEQ ID NO: 45), starting at 100 nM with a 2-fold serial dilution in HBS-EP⁺ buffer (provided by Biacore), was flowed onto the chip at a flow rate of 30 μL/min. The antigen-antibody association kinetics was followed for 2 minutes and the dissociation kinetics was followed for 10 minutes. The association and dissociation curves were fit to a 1:1 Langmuir binding model using BIAcore evaluation software.
Cell supernatants containing humanized antibodies were harvested after six days in shaking flasks and directly subjected to BIAcore test following the protocol described above with modifications.

[3] = biological target: T2, human IL6R expressed on cell surface; assay: cell-based binding FACS on U266 cells
Method: The binding activities of the mouse anti-IL6R antibodies to IL6R expressed on cell surface were tested by flow cytometry (FACS). Briefly, human myeloma cells U266 (ATCC® TIB-196™) were harvested from cell culture flasks, washed twice and resuspended in phosphate buffered saline (PBS) containing 2% v/v Fetal Bovine Serum (FACS buffer). 2×10⁵ U266 cells per well were incubated in 96 well-plates with 100 μl of the anti-IL6R antibodies or controls at various concentrations (starting at 40 nM with a 3-fold serial dilution in FACS buffer) for 40 minutes on ice. Cells were washed twice with FACS buffer, and added with 100 μL/well R-Phycoerythrin AffiniPure F(ab′)₂ Fragment Goat Anti-Mouse IgG (H+L) (1:1000 dilution in FACS buffer, Jackson ImmunoResearch Laboratories, Inc., Cat #115-116-146). Following an incubation of 40 minutes at 4° C. in dark, cells were washed three times and resuspended in FACS buffer. Fluorescence was measured using a Becton Dickinson FACS Canto II-HTS equipment. Data was analyzed using Graphpad Prism software and EC₅₀ values were reported.

human IL6R-Fc protein [4] = biological target: T3, human IL6R-Fc protein; assay: ligand blocking ELISA: antibody pre-incubated with biotin-labeled human IL6R-Fc, added to plate-coated human IL6 (blocked ligand: human IL6); remark: listed apart in the source
Method: as §1

human IL6R-Fc protein [5] = biological target: T3, human IL6R-Fc protein; assay: as above; remark: listed apart in the source

| Binder | IC50 (human IL6R-Fc protein [1]) [nM] | Kd [2] [nM] | koff [2] [s⁻¹] | kon [2] [M⁻¹ s⁻¹] | EC50 [3] [nM] | IC50 (human IL6R-Fc protein [4]) [nM] | IC50 (human IL6R-Fc protein [5]) [nM] |
| --- | --- | --- | --- | --- | --- | --- | --- |
| Chimeric 1H7 (antibody, human IgG1, kappa, V domains shown, Mouse variable regions on human IgG1 / human kappa constant regions; also called chimeric antibody 1H7) VH: QVQLQQPGTELVKPGASVKLSCKASGYTFTNYWMHWVKQRPGQGLDWIGEINPTNGRTNYNENFKSKATLTVDKSSSTAYMQLSSLTSEDSAVYYCARLNTHYVFDSWGQGTTLTLSS VL: EIVLTQSPTTLAASPGEKITFTCSVSSSISSNYLHWYQQKPGFSPKLLISRTSTLASGVPARFSGSGSGTSYSLTIGTMEAEDVATYYCQQGSGIPFTFGSGTKLELKR | 0.161 | 0.604 | 0.000123 | 204000 | – | – | – |
| humanized antibody hu1H7-V5 (antibody, human IgG1, kappa, V domains shown, Human IgG1 / kappa) VH: QVQLVQSGAEVKKPGASVKVSCKASGYTFTNYWMHWVRQAPGQGLEWIGEINPTNGRTNYNENFKSRVTLTVDTSTSTVYMELSSLRSEDTAVYYCARLNTHYVFDSWGQGTLVTVSS VL: EIVLTQSPGTLSLSPGERATLSCSVSSSISSNYLHWYQQKPGLSPRLLISRTSTLASGIPARFSGSGSGTEYTLTISRMQSEDFAVYYCQQGSGIPFTFGQGTKLEIKR | 0.223 | – | – | – | – | – | – |
| mouse anti-IL6R monoclonal antibody 1F7 (antibody, V domains shown, Mouse hybridoma mAb) VH: QVQLQQPGAELVKPGASVKLSCKASDYTFTSYWMHWVKQRPGQGLEWIGEINPSNGRTNYNEKFKNKATLTVDKSSSTAYVQLYSLTSEDSAVYYCARLSIHYVFDYWGQGTTLTVSS VL: ELVLTQSPTTMAASPGEKITFTCSASSSISSNYLHWYQQKPGFSPKLLISGTSNLASGVPPRFSGSGSGTSYSLTIVTMEAEDVATYYCQQGSGIPFTFGSGTKLEIK | – | – | – | – | 0.304 | – | – |
| mouse anti-IL6R monoclonal antibody 1D4 (antibody, V domains shown, Mouse hybridoma mAb) VH: QVQLQQPGAELVKPGASVKLSCKASGYTFTSYWMHWVKVRPGQGLEWIGEINPTNGRTNYNEDFKSKATLTVNSSSSTAYMQLSSLTSEDSAVYYCARLNTHYVFDYWGQGTTLTVSS VL: EIVLTQSPTILAASPGEKITFTCSVSSSISSNYLHWYQQKPGFSPKLLIYRTSNLASGVPARFSGSGSGTSYSLTIGTMEAEDVATYYCQQGSGIPFTFGSGTKLEIK | – | – | – | – | 0.274 | – | – |
| Tocilizumab (antibody, human IgG1, kappa, V domains shown, In house made; also called benchmark; Actemra) VH: QVQLQESGPGLVRPSQTLSLTCTVSGYSITSDHAWSWVRQPPGRGLEWIGYISYSGITTYNPSLKSRVTMLRDTSKNQFSLRLSSVTAADTAVYYCARSLARTTAMDYWGQGSLVTVSS VL: DIQMTQSPSSLSASVGDRVTITCRASQDISSYLNWYQQKPGKAPKLLIYYTSRLHSGVPSRFSGSGSGTDFTFTISSLQPEDIATYYCQQGNTLPYTFGQGTKVEIKR | 1.03 | 3.81 | – | – | 1.64 | 2.54 | 0.616 |

Further lines, results first:

| IC50 (human IL6R-Fc protein [1]) [nM] | Kd [2] [nM] | koff [2] [s⁻¹] | kon [2] [M⁻¹ s⁻¹] | EC50 [3] [nM] | IC50 (human IL6R-Fc protein [4]) [nM] | IC50 (human IL6R-Fc protein [5]) [nM] | Binder |
| --- | --- | --- | --- | --- | --- | --- | --- |
| 0.189 | – | – | – | 0.246 | 0.601 | – | mouse anti-IL6R monoclonal antibody 1H7 (antibody, V domains shown, Mouse hybridoma mAb) VH: QVQLQQPGTELVKPGASVKLSCKASGYTFTNYWMHWVKQRPGQGLDWIGEINPTNGRTNYNENFKSKATLTVDKSSSTAYMQLSSLTSEDSAVYYCARLNTHYVFDSWGQGTTLTLSS VL: EIVLTQSPTTLAASPGEKITFTCSVSSSISSNYLHWYQQKPGFSPKLLISRTSTLASGVPARFSGSGSGTSYSLTIGTMEAEDVATYYCQQGSGIPFTFGSGTKLELK |
| – | – | – | – | 0.391 | 1.05 | 0.274 | mouse anti-IL6R monoclonal antibody 1H9 (antibody, V domains shown, Mouse hybridoma mAb) VH: QVQLQQPGAELVKPGASVKLSCKASGYTFTSYWMHWVKLRPGQGLEWIGEINPTNGRTNYYEKFKNRATLTADKSSSTAYMQLSSLTFEDSAVYFCAKFHYSRWYFDVWGTGTTVTVSS VL: DIVMTQSQKFMSTSVGDRVSITCKASQNVGTAVVWYQQKPGQSPKLLINPASNRYTGVPDRFTGSGSGTDFTLTISNMQSEDLADYFCQQYSSYPLTFGAGTKLELK |
